Test results as given in publication PMC12167710 (Nature Biotechnology, 2024).

What was measured:
[1] = target: T1, receptor-binding domain (RBD) of the wild-type SARS-CoV-2 spike protein (SARS-CoV-2, UniProt P0DTC2 333-527); assay: cell-based or functional assay
[2] = target: T1, receptor-binding domain (RBD) of the …; assay: BLI; conditions: both partners purified

B1: hRBD1 (antibody, V domains shown)
VH: QVQLVQSGSELKKPGASVKVSCKASGNTLTNHALNWVRQAPGQGLEWMGWINTNTGIPTYAQGFTGRFVFSLDTSVSTAYLQISSLKAEDTAVYYCARVGQTAIAALDDAFDIWGQGTMVTVSS
VL: not shown
[1]
  other: 83 ng/mL
[2]
  Kd: 17.1 pM

B2: hRBD2 (antibody, V domains shown)
VH: QVQLVQSGSELKKPGASVKVSCKASGYTFSNYAINWVRQAPGQGLEWMGWINTNTGHPTYAQGFTGRFVFSLDASVTTAYLQISSLKAEDTAVYYCARVGRTAIAALDDAFDIWGQGTMVTVSS
VL: not shown
[1]
  other: 91.7 ng/mL
[2]
  Kd: 65.2 pM

B3: hRBD3 (antibody, V domains shown)
VH: QLQLQESGPRLVRPSETLSLTCTVSGGSINSGTHYCGWIRQSPGKGLEWIGSIYYSGTTYYNPSLKSRVTISVDTSKNQFSLKLSSVTAADTAVYFCARRRAGSYFKDLSDYWGQGTLVTVSS
VL: NFMLTQPHSVSESPGKTVTISCTRSSGSIASNYVQWYQQRPGGAPTTVIYEDNQRPSGVPDRFSGSIDTSSNSASLTISGLKTDDEADYYCQSYDSTNHEVFGGGTKLTVL
[1]
  other: 11.6 ng/mL
[2]
  Kd: < 1 pM

B4: hRBD4 (antibody, V domains shown)
VH: QLQLQESGPGLVKPSETLSLTCTVSGGSISTSSHYCAWIRQPPGKGLEWIGSIYYRGSTYYNPSLKSRVTISVDTSKNHFSLKLSSVTAADTAVYYCARRRAGSYYKDLFDYWGQGTLVTVSS
VL: NFMLTQPHSVSESPGKTVTISCTRSSGSIASNYVQWYQQRPGSAPTTVIYEDNQRPSGVPDRFSGSIDSSSNSASLTISGLKTEDEADYYCQSYDNSNHEVFGGGTKLTVL
[1]
  other: 8.9 ng/mL
[2]
  Kd: 491 pM

B5: hRBD5 (antibody, V domains shown)
VH: QVQLQQWGAGLLQPSETLSLTCAVYGGSFSDYYWSWIRQPPGRGLEWIGEIDHSGSTNYNPSLKSRVTILVDTSKNQFSLKLSSVTAADTAVYYCARAHLIGHCGDGGCYSGPDPSSWFDPWGQGTLVIVSS
VL: SSELTQDPAVSVALGQTVRITCQGDSLRRYFASWYQQKPGQAPVLVIYGKNIRPSGIPDRFSGSSSGNTGSLTITGAQAEDEADYYCHSRDSSGHHPLFGGGTKLTVL
[1]
  other: 10.7 ng/mL
[2]
  Kd: 127 pM

B6: hRBD6 (antibody, V domains shown)
VH: QVQLQQWGAGLLKPSETLSLSCAVYGGAFSDYYWSWIRQPPGKGLEWIGEIDLSGSTNYNPSLKSRVTISVDTSKNQFSLKLISVTAADTAVYYCARTHLIGYCSGGSCYSGPDPSNWFDPWGQGTLVTVSS
VL: SSELTQDPAVSVALGQTVRITCQGDSLRSYYASWYQQKPGQAPVLVIYGKNNRPSGIPDRFSGSSSGNTASLTITGAQAEDEADYYCNSRDTSGHHPVFGGGTKLTVL
[1]
  other: 32.7 ng/mL
[2]
  Kd: 5090 pM

B7: hRBD8 (antibody, V domains shown)
VH: QVQLQQWGAGRLKPSETLSLTCAVYGGSFSGYYWSWIRQPPGKGLEWIGEIDHSGSTNYNSSLKSRVTISVDTSKKWFSLKLSSVTAADTAVYYCARAHLIGDCGGGRCYSGPDPSNWFDPWGQGTLVTVSS
VL: SSELTQDPAVSVALGQTVRITCQGDSLRSYYASWYQQKPGQAPILVIYGKDNRPSGIPDRFSGSSSENTASLTITGAQAEDEADYYCNCRDTSGNHPVFGGGTKLTVL
[1]
  other: 49.6 ng/mL
[2]
  Kd: 9740 pM

B8: hRBD14 (antibody, V domains shown)
VH: EVQLVESGGGLVQPGGSLRLSCAASGFSFSSSDMHWVRQATGKGLEWVSGIGTSGDTYYLGSVKGRFTISRDDAKNSFYLQMNSLRAGDTAVYYCARGEMAATGLWYYFDYWGQGTLVTVSS
VL: not shown
[2]
  Kd: 618 pM

B9: hRBD16 (antibody, V domains shown)
VH: EVQLVESGGALIQPGGSLRLSCAASGFTVSSNYMYWVRQAPGKGLEWVSLIYPGGSTFYADSVKGRFTISRDNSENTLYLQMNSLRAEDTAVYYCARGPYGDSNWGQGTLVTVSS
VL: DIQMTQSPSSLSASVGDRVTITCQASQDIRNYLNWYQQKPGKAPKLLIYDASNLKTGVPSRFSGSGSGTDFTFTISSLQPEDIATYYCQQYDNLPITFGQGTRLEIK
[2]
  Kd: < 1 pM
